Laboratory results taken from US20080213281A1, “Butyrylcholinesterase Variants that Alter the Activity of Chemotherapeutic Agents” (priority 2002, published 2008).
Where a chain is given by its changes, count along the chain named. Names and notes keep the numbering of the source. “Also recorded” adds a separate entry of the source. Where two headings read alike, the source gives them in different places.

Key:
CD20 (human) = CD20 (human) (UniProt P11836); experiment: method not stated
[1] = cited from earlier work; for Km: Humerickhouse et al., read-out: Km (CPT-11 conversion)
[2] = HPLC assay of CPT-11 conversion to SN-38 by conditioned media of transiently expressed BChE variants; type: biochemical; conditions: for SN-38 formation from CPT-11 (in words): HPLC, compared to mock or wild-type; for Fold improvement in CPT-11 conversion: compared to wild-type butyrylcholinesterase, conditioned media exposed to 20 mM CPT-11 for 72 hours at 37° C., conservative values
Protocol: Butyrylcholinesterase variants were assayed for CPT-11 conversion activity using fluorescent High Performance Liquid Chromotography (HPLC) detection of SN-38 formation as described in Dodds and Rivory, Mol. Pharmacol. 56:1346-1353 (1999), which is incorporated herein by reference. Briefly, conditioned media from transiently expressed BChE variants were exposed to 20 mM CPT-11 for 72 hours at 37° C. and analyzed by HPLC for SN-38 formation (peak at about 4 minutes column retention time).

[3] = CPT-11 hydrolysis by BChE variant 4-1, SN38 quantitated by reverse-phase HPLC, Km by Hofstee plot; type: biochemical; conditions: for Km / fold increase in CPT-11 hydrolysis over wild-type BChE: 37° C., 24 hours; for Km: 1-80 μM CPT-11; for fold increase in CPT-11 hydrolysis over wild-type BChE: SN38 peak AUC; for fold improvement in the Km for CPT-11: over wild-type / native serum BChE
Protocol: BChE plasmid variants were expressed transiently in the human embryonic kidney cell line 293T and assayed for activity at 72 hours post-transfection. Primary screening of variants was performed by indirect measurement of enzymatic activation of CPT-11 (FIG. 2) in SW48 colon carcinoma cell cytotoxicity assays. […] Functional hits identified in these assays were characterized by sequence analysis of the corresponding DNA from the original preps. […] Enzyme was incubated at 37° C. for 24 hours with CPT-11 over a range of concentrations from 1-80 μM. […] Velocity (v) is in light absorbance units at 540 nm. Substrate concentration [s] is μM CPT-11.
Samples were acidified and resolved by reverse-phase HPLC on a NovaPak C18 column to separate SN38 from unactivated CPT-11. SN38 peak area under the curve (AUC) was used to compare CPT-11 activation by the wild-type enzyme to the optimized BChE.4-1 variant.

[4] = o-nitrophenyl acetate (o-NPA) hydrolysis assay for carboxylesterase activity of antibody-captured butyrylcholinesterase variants; type: biochemical; conditions: antibody capture/normalization
Protocol: A modification of this assay that measures o-NPA activity of butyrylcholinesterase variants normalized by capturing with an anti-butyrylcholinesterase antibody was performed as described below.
Protocol to Determine Carboxylesterase activity of Captured Butyrylcholinesterase by o-Nitrophenyl acetate:
1) Coat 96-well Immulon 2 plates with rabbit anti-human butyrylcholinesterase (Dako #A0032) at 10 mg/ml in PBS (100 ml/well) overnight at 4° C. 2) Remove coating solution and block plate with 3% BSA in PBS (250 ml/well) for 2 hours at room temperature. 3) Add 200 ml butyrylcholinesterase variant conditioned media and incubate at RT for 2 hrs. 4) Wash plate 3 times with 250 ml/well PBS. 5) Add 85 ml/well 0.1 M potassium phosphate pH 7.0 6) Add 13.6 mg o-NPA to 100 ml acetonitrile, mix to dissolve. Add 100 ml of this stock to 6.3 mls water and mix well. 7) Wash plate 3 times with PBS. 8) Add 15 ml of diluted o-NPA substrate. 9) Read absorbance at 405 nm.
Conditioned media from butyrylcholinesterase variants that were transiently expressed in 293T cells was tested using the above described anti-butyrylcholinesterase antibody capture/normalization assay for carboxylesterase activity. […] The level of activity of the other variants can be compared to the level of activity of F227A. […] In order to determine the amount of variability present in the assay, several wells contained the same variant. […]

AME133 Fab (humanized anti-CD20 with fully human germline framework regions)
Kd (CD20 (human)): 1 nM

hCE-1
Km [1]: 43 µM

B1: hCE-2 (protein, UniProt O00748 27-559, looked up)
Cocaine esterase: QDSASPIRTTHTGQVLGSLVHVKGANAGVQTFLGIPFAKPPLGPLRFAPPEPPESWSGVRDGTTHPAMCLQDLTAVESEFLSQFNMTFPSDSMSEDCLYLSIYTPAHSHEGSNLPVMVWIHGGALVFGMASLYDGSMLAALENVVVVIIQYRLGVLGFFSTGDKHATGNWGYLDQVAALRWVQQNIAHFGGNPDRVTIFGESAGGTSVSSLVVSPISQGLFHGAIMESGVALLPGLIASSADVISTVVANLSACDQVDSEALVGCLRGKSKEEILAINKPFKMIPGVVDGVFLPRHPQELLASADFQPVPSIVGVNNNEFGWLIPKVMRIYDTQKEMDREASQAALQKMLTLLMLPPTFGDLLREEYIGDNGDPQTLQAQFQEMMADSMFVIPALQVAHFQCSRAPVYFYEFQHQPSWLKNIRPPHMKADHGDELPFVFRSFFGGNYIKFTEEEEQLSRKMMKYWANFARNGNPNGEGLPHWPLFDQEEQYLQLNLQPAVGRALKAHRLQFWKKALPQKIQELEEPEERHTEL
Km [1]: 3.4 µM | rate of CPT-11 conversion to SN38, fold higher than hCE-1 ([1]; at pharmacologically relevant drug concentrations (˜1-10 μM)): 25-30 fold

B2: wild-type butyrylcholinesterase (protein, UniProt P06276 29-602, looked up)
Cholinesterase: EDDIIIATKNGKVRGMNLTVFGGTVTAFLGIPYAQPPLGRLRFKKPQSLTKWSDIWNATKYANSCCQNIDQSFPGFHGSEMWNPNTDLSEDCLYLNVWIPAPKPKNATVLIWIYGGGFQTGTSSLHVYDGKFLARVERVIVVSMNYRVGALGFLALPGNPEAPGNMGLFDQQLALQWVQKNIAAFGGNPKSVTLFGESAGAASVSLHLLSPGSHSLFTRAILQSGSFNAPWAVTSLYEARNRTLNLAKLTGCSRENETEIIKCLRNKDPQEILLNEAFVVPYGTPLSVNFGPTVDGDFLTDMPDILLELGQFKKTQILVGVNKDEGTAFLVYGAPGFSKDNNSIITRKEFQEGLKIFFPGVSEFGKESILFHYTDWVDDQRPENYREALGDVVGDYNFICPALEFTKKFSEWGNNAFFYYFEHRSSKLPWPEWMGVMHGYEIEFVFGLPLERRDNYTKAEEILSRSIVKRWANFAKYGNPNETQNNSTSWPVFKSTEQKYLTLNTESTRIMTKLRAQQCRFWTSFFPKVLEMTGNIDEAEWEWKAGFHRWNNYMMDWKNQFNDYTSKKESCVGL
CPT-11 conversion ([2]; HPLC assay, conditioned media): less than 1% | SN-38 formation from CPT-11 (in words) ([2]; conditioned media): did not show detectable levels of SN-38 | Km [3]: 40 µM | carboxylesterase activity relative to the level of activity seen with F227A [4]: approximately 50%

B3: F227A/L286H (protein)
chain: B2 Cholinesterase with F227X, L286H
modifications: Synthetic butyrylcholinesterase variant; VARIANT (227)..(227): Xaa = Ala; VARIANT (286)..(286): L286H
Fold improvement in CPT-11 conversion [2]: >35 fold | SN-38 formation from CPT-11 (in words) ([2]; conditioned media): increased CPT-11 conversion to SN-38

B4: F227A/L286W (protein)
chain: B2 Cholinesterase with F227A, L286W
modifications: Synthetic butyrylcholinesterase variant; VARIANT (227)..(227): F227A; VARIANT (286)..(286): L286W
Fold improvement in CPT-11 conversion [2]: >42 fold | SN-38 formation from CPT-11 (in words) ([2]; conditioned media): increased CPT-11 conversion to SN-38

B5: 4-1 variant (protein)
chain: B2 Cholinesterase with H77F, F227X, P285N, V331A
modifications: Synthetic butyrylcholinesterase variant; VARIANT (77)..(77): H77F; VARIANT (227)..(227): Xaa = Ala; VARIANT (285)..(285): P285N; VARIANT (331)..(331): V331A
Km [3]: ~7 µM | Km ([3]; listed as BChE variant 4-1): 6.9 µM | fold increase in CPT-11 hydrolysis over wild-type BChE [3]: > 3000 fold | fold increase in CPT-11 hydrolysis over wild-type BChE ([3]; listed as BChE variant 4-1): > 3000 fold | fold increase in CPT-11 hydrolysis over wild-type BChE ([3]; listed as SEQ ID NO: 180): three thousand | fold improvement in the Km for CPT-11 [3]: 5-6 fold | fold improvement in the Km for CPT-11 ([3]; listed as BChE variant 4-1): > 5 fold

B6: F227A/L286S (protein)
chain: B2 Cholinesterase with F227X, L286S
modifications: Synthetic butyrylcholinesterase variant; VARIANT (227)..(227): Xaa = Ala; VARIANT (286)..(286): L286S
Fold improvement in CPT-11 conversion [2]: >50 fold | Fold improvement in CPT-11 conversion ([2]; listed as F227A/L268S): ≥ 50 fold | SN-38 formation from CPT-11 (in words) ([2]; conditioned media): significant conversion; also recorded: increased CPT-11 conversion to SN-38

B7: F227A/T284A (protein)
chain: B2 Cholinesterase with F227X, T284X
modifications: Synthetic butyrylcholinesterase variant; VARIANT (227)..(227): Xaa = Ala; VARIANT (284)..(284): Xaa = Ala
Fold improvement in CPT-11 conversion [2]: >7 fold | SN-38 formation from CPT-11 (in words) ([2]; conditioned media): increased CPT-11 conversion to SN-38

B8: F227A/S287P (protein)
chain: B2 Cholinesterase with F227A, S287X
modifications: Synthetic butyrylcholinesterase variant; VARIANT (227)..(227): F227A; VARIANT (287)..(287): Xaa = Pro
Fold improvement in CPT-11 conversion [2]: >6 fold | SN-38 formation from CPT-11 (in words) ([2]; conditioned media): increased CPT-11 conversion to SN-38

B9: F227A (protein)
chain: B2 Cholinesterase with F227X
modifications: Synthetic butyrylcholinesterase variant; VARIANT (227)..(227): Xaa = Ala
SN-38 formation from CPT-11 (in words) ([2]; conditioned media): produced a small amount of SN-38; also recorded: increased CPT-11 conversion to SN-38

B10: F227A/L286Q (protein)
chain: B2 Cholinesterase with F227X, L286Q
modifications: Synthetic butyrylcholinesterase variant; VARIANT (227)..(227): Xaa = Ala; VARIANT (286)..(286): L286Q
Fold improvement in CPT-11 conversion [2]: >10 fold | SN-38 formation from CPT-11 (in words) ([2]; conditioned media): increased CPT-11 conversion to SN-38
